Reference: patent publication US20030153066A1 (University of California, published 2003)

Target: HIV-1 Gag Pr55 (wild-type) (HIV-1, UniProt P03348 1-512, N-terminal myristoylation (reactions with MCoA))
Assay: cell-based or functional assay

B1: WGHP68-Tr1 (other)
chain: MADRLTRIAIVSEDKCKPKKCRQECKKSCPVVKTGKLCIEVSPVAKLAFISEELCIGCGICVKKCPFDAIEIINLPKDLEKDTTHRYGPNTFKLHRLPVPRPGQVLGLVGTNGIGKSTALKVLAGKLKPNLGRFKNPPDWQEILTYFRGSELQNYFTRILEDNLKAIIKPQYVDHIPKAVQGNVGQVLEQKDERDMKNELCVDLELNQVIDRNVGDLSGGELQRFAIAVVAVQSAEIYMFDEPSSYLDVKQRLKAARVIRSLLRSNSYVIVVEHDLSVLDYLSDFICCLYGKPGAYGVVTLPFSVREGINIFLAGFVPTENLRFRDESLTFKIAETQESAEEVATYQRYKYPTMSKTQGNFKLSVVEGEFTDSQIVVM
  amount of HIV-1 Gag protein in the medium of co-transfected Cos-1 cells (virion production): 4.7 fold
